Laboratory results reported in the nanobody polyreactivity screen of Harvey et al. (2022).

Assay: yeast display, Sf9 membrane polyspecificity reagent, FACS + sequencing; frameworks hold sequencing errors
Method in brief: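 Using colony PCR, genes from sorted yeast display clones were amplified, then sequenced on MiSeq at 2 × 250 and filtered by CDR length. The clones had been stained with 10% biotinylated, detergent-solubilized Sf9 membrane reagent for 1 hour at 4 °C and sorted by FACS into low and high (top ~1%) gates on anti-HA and streptavidin fluorescence. Polyreactivity labels come from the gate of origin.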

Row | Sequence | polyreactivity (PSR sort gate)
1 | QVQLVESGGCLVQAGGSLRLSCAASGNTFRRNVMGWYRQAPGKERELVPAINRGGSTTYADSVKGRFTISRDNAMNTVYLQMNSLKPEDTAVYYCNAEKRGQSYRFDYWGQGSQVTVSS | high polyreactivity
2 | QVQLVESGGGLVQAGGSLRLSCAASGSIFSRYAMGWYRQAPGKERELVAAITSSGTSTYYADSVKGRFTISRDNAKNTVYLQMNSLKPEDTAVYYCAAAFRQRTSRFDYWGQGSQVTVSS | high polyreactivity
3 | QGQLVESGGGLVQAGGSLRLSCAASGFTSSRNAMGWYIQEAGKERELVATISSGGDTYYADSVKGRFTISRDNAKNTVYLQMNSLKPEDTAVYYCNKDPLYAWGYDYWGQGTQVTVSS | low polyreactivity
4 | QVQLVESGGGLVQAGGRLRLSCSASGIILPKYTMGGYRQAPGKERELVAAITRSGGSTYYADSVKGRFTISRDNAKNTVYLHMISMKPEDTAVYYCAAERASFRYQDYYIYDYWGQGTEVTVSS | high polyreactivity
5 | QVQLVESGGLLVQAGGSLRLRGAASGSTIPRNAMGWYRQAPGKERELVASITSDGGSTYYADSVKGRFTISRDNAQITVYLQMNSLNPEDTAVYYFNAYTRYGLFAYDYWGQGTQVTVSS | high polyreactivity
6 | QVQVVESGGGLVQAGGSLRVICAASGSTFYRNAMGWYRQAPGKEWELVAAITRSASSTYYADSVKGRFTISRDNAKNNVDLQLNSLKPEDTAVYYCAAKRRVSHLDYWGQGTQVNVSS | high polyreactivity
7 | QVQLVESGGGLVQAGGSLRLSCAASGSTFKYNTMGWYRQAPGKERELVATISTGGSTYYADSVKGRFTISRDNAKNTVYLQMNSLKPEDTAVYYCAADGARRNTYRYDYWGQGTQVTVSS | low polyreactivity
8 | QVQLVESGGGLVQAGGSLRLSCAASGIIVPYNAMGWYRQEPGKVRYLVSAITSGGSTYYADSVKGRFTISRDNAKNTVYLQMNSMKPEDTAVYYCAKVPLSARRNNQSWAYDYWGQGTQVTVSS | low polyreactivity
9 | QVQLVESGGGLVQAGGSLRLSCAASGRIFRAYAMGWYRQAPGKERELVAAITSGVSTNYADSVKGRFTISRDNAKNTVYLQMNSLKPEDTAVYYCAVLGKRNAYYYWGQGTQVTVSS | low polyreactivity
10 | QVQLVESGGGLVQAGGSHRLSCAASGITFYGNAMGWYRQAPGKERELVAGITSGGNTYYADSVKGRFTISRDNAKNTVYLQMNSLKPEDTAVYYCAAGYFSYRSYYYYRYDYWGQGTQVTVSS | high polyreactivity
11 | QVQLVESGGGLVQAGGSLRLSCAASGLTFDYYAMGWYRQAPGKERELVAVISRVGSTYYADSVKGRFTISRDNAKNTVYLQINSLKPEDTAVYYCAADLWHSYQDMYYWGQGTQVTVSS | low polyreactivity
12 | QVQLVESGGGLVQAGGSLRLSCAASGSIFDIYAMGWYRQAPGKERELVASIRRRGGSTYYADSVKGRFTISRDNAKNTVYLQMNSLKPEDTAVYYCNARRVWLRTTGTNWPERGYWGQGTQVTVSS | high polyreactivity
13 | QVQLVESGGGLVQAGGSLRLSCAASGFTFHYYAMGWYRPAPGKERELVAAISRGGGNTYYADSVKGRFTISRDNAKNTVYLQMNSLKPEDTAVYYCAADSKYRFSHGLDYWGQGTQVTVSS | high polyreactivity
14 | QVQLVESGGGLVQAGGSLRLSCAASGSIFGGYAMGWYRPAPGKERELVAAIDESGGSTYYADSVKGRFTISRDNAKNTVYLQMNSLKPEDTAVYYCLVFRDDSGPGDYYYWGQGTQVTVSS | low polyreactivity
15 | QVQLVESGGGLVQAGGSLRLSCAASGRTLGYYAMGWYRQAPGKERELVAAISGSGGITYYADSVKGRFTISRDNAKNTVYLQMNSLKPEDTAVYYCNVDPTAKWFNYDSWGQGTQVTVSS | low polyreactivity
16 | QVQLVESGGGLVQAGGSLRLSCAASGYTFIRNGMGWYRQAPGKERDLVAAISRRGGSTYYADSVKGRFTISRDNAKNTVYLQMNRLKPEDTAVYYCAKASTERMGSWGQGTQVTVSS | high polyreactivity
17 | QVQLVESGGRLVQAGGSLRLSCAASGRIFGYYAMGWYRQAPGKERELVAAISSGGNTYYADSVKGRFTISRDNAKNTVYLQMNSLKPEDTAVYYCNEVYVGWQYGYDYWGQGTQVTVSS | low polyreactivity
18 | QVQLVESGGGLVQAGGSLRLSCAASGSTFPINAMGWYRQAPGTERELVAAIDTNTASTYYADSVKGRFTISRDNAKNTVYLQMNSLKPEDTAVYYCAAEEWFYDGNVIYDWGQGTQVTVSS | high polyreactivity
19 | QVQLVESGGGLVQAGGSLRLSCAASGGIFDGNAMGWYRQAPGKERELVAAISSGGITKYADSEKGRFTISRDNAKNTVYLQMNSLKPEDTAVYYCAASWYRYRFIRYDYWGQGTQVTVSS | high polyreactivity
20 | QVQLVESGGGLVQAGGSLRLRCAASGRIQPGNAMGWYRQATGKERELVAAISSGGRTNYADSVKGRFTISRDIAKITVYLQMNSLKPEDTAVYYCAKRTVWWSIWHYYPPTYNYWGQGTQVTVSS | high polyreactivity
21 | QDQLVESGGGLVQAGGSLRLSCAASGFTFYQYAMGLYIQAPGKERELVASITWNGGSTFYADSVKGRFTISRDNAKNTVYFQMNSLKPEDTAVYYCNVAYVYGSFRRRPMGYWGQGTQVTVSS | high polyreactivity
22 | QVQLVESGGGLVQAGGSLRLSCAASGLIFISYAMGWYRQAPGKERELVAAITSTVGGTYYADSVKGRFTISRDNAKNTVYLQMNSLKPEDTAVYYCAAEISYRWWYNLGFTSFVYWGQGTLVTVSS | low polyreactivity
